# Source: patent US20160159928A1
# “And” between values parts separate entries of the source, which are not always exact repeats. Equal entries are not always repeated.
# Legend:
# [1] = molecular target: CXCR1 (UniProt P25024); test: cell-based or functional assay
# [2] = molecular target: Kv1.3 (human) (UniProt P22001); test: cell-based or functional assay
# Kv1.3 (human), sequence (P22001 whole entry): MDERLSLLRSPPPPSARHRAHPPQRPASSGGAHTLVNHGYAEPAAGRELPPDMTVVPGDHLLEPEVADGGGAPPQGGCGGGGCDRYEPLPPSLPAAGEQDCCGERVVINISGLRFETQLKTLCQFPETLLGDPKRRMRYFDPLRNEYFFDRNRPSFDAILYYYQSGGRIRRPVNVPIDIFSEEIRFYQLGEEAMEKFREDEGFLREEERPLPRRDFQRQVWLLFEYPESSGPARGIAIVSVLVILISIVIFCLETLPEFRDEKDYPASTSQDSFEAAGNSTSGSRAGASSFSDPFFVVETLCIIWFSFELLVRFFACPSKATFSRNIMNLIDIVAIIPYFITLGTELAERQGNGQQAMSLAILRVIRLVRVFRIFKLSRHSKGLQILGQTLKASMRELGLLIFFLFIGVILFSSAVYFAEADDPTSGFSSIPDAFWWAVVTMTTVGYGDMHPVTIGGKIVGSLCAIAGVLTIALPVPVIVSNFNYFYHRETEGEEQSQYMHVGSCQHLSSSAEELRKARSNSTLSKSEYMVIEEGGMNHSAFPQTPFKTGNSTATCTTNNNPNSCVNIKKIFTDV
# CXCR1, sequence (P25024 whole entry): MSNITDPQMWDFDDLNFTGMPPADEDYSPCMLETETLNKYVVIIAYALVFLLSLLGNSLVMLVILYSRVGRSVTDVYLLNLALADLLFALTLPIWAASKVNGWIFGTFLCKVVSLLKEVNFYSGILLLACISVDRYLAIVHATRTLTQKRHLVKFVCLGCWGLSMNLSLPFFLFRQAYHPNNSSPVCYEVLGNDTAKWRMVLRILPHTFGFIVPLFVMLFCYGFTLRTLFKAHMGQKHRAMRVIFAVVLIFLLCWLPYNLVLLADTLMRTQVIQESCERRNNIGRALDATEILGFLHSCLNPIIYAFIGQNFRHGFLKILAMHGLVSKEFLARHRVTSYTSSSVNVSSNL
binder,measurement,setting,value
"VH4-34+CDR3-IL8_CDR1-Cow_Q5RQ6E with VL1-51 S2A, T5N, P8S, A12G, A13S, P14L, K46R, L47T, D51G, N52D, N53T (antibody) VH: QVQLREWGAGLLKPSETLSLTCTASGFSLSDKAVGWIRQPPGKGLEWIGEINHSGSTNYNPSLKSRVTISVDTSKNQFSLKLSSVTAADTAVYYCTSVHQETKKYQSPRSAKELRCQCIKTYSKPFHPKFIKELRVIESGPHCANTEIIVKLSDGRELCLDPKENWVQRVVEKFLKRAENSGSGSYTYNYEWHVDVWGQGLLVTVSS light: QAVLNQPSSVSGSLGQKVTISCSGSSSNIGNNYVSWYQQLPGTAPRTLIYGDTKRPSGIPDRFSGSKSGTSATLGITGLQTGDEADYYCASAEDSSSNAVFGSGTTLTVLGQPKAAPSVTLFPPSSEELQANKATLVCLISDFYPGAVTVAWKADSSPVKAGVETTTPSKQSNNKYAASSYLSLTPEQWKSHRSYSCQVTHEGSTVEKTVAPTECS",luminescence at 0.1 nM IL-8 domains,[1],4180
same,luminescence at 0.4 nM IL-8 domains,[1],5190
same,luminescence at 0.5 nM IL-8 domains,[1],6620
same,luminescence at 1.6 nM IL-8 domains,[1],6410
same,luminescence at 2.2 nM IL-8 domains,[1],13500
same,luminescence at 6.25 nM IL-8 domains,[1],10500
same,luminescence at 9.9 nM IL-8 domains,[1],21900
same,luminescence at 25 nM IL-8 domains,[1],14600
same,luminescence at 44 nM IL-8 domains,[1],24000
same,luminescence at 100 nM IL-8 domains,[1],18000
same,luminescence at 200 nM IL-8 domains,[1],25000
"VH4-34+CDR3-IL8_CDR1-G31DY32K_CDR2-E50S_Q5RQ6E with VL1-51 S2A, T5N, P8S, A12G, A13S, P14L, K46R, L47T, D51G, N52D, N53T (antibody) VH: QVQLREWGAGLLKPSETLSLTCAVYGGSFSDKYWSWIRQPPGKGLEWIGSINHSGSTNYNPSLKSRVTISVDTSKNQFSLKLSSVTAADTAVYYCTSVHQETKKYQSPRSAKELRCQCIKTYSKPFHPKFIKELRVIESGPHCANTEIIVKLSDGRELCLDPKENWVQRVVEKFLKRAENSGSGSYTYNYEWHVDVWGQGLLVTVSS light: QAVLNQPSSVSGSLGQKVTISCSGSSSNIGNNYVSWYQQLPGTAPRTLIYGDTKRPSGIPDRFSGSKSGTSATLGITGLQTGDEADYYCASAEDSSSNAVFGSGTTLTVLGQPKAAPSVTLFPPSSEELQANKATLVCLISDFYPGAVTVAWKADSSPVKAGVETTTPSKQSNNKYAASSYLSLTPEQWKSHRSYSCQVTHEGSTVEKTVAPTECS",luminescence at 0.1 nM IL-8 domains,[1],4060
same,luminescence at 0.4 nM IL-8 domains,[1],6190
same,luminescence at 0.5 nM IL-8 domains,[1],5300
same,luminescence at 1.6 nM IL-8 domains,[1],8160
same,luminescence at 2.2 nM IL-8 domains,[1],10300
same,luminescence at 6.25 nM IL-8 domains,[1],13500
same,luminescence at 9.9 nM IL-8 domains,[1],17100
same,luminescence at 25 nM IL-8 domains,[1],21000
same,luminescence at 44 nM IL-8 domains,[1],23300
same,luminescence at 100 nM IL-8 domains,[1],25900
same,luminescence at 200 nM IL-8 domains,[1],22300
"VH4-34+CDR3-IL8_CDR1-G31DY32K_CDR2-E50S with VL1-51 S2A, T5N, P8S, A12G, A13S, P14L, K46R, L47T, D51G, N52D, N53T (antibody) VH: QVQLQQWGAGLLKPSETLSLTCAVYGGSFSDKYWSWIRQPPGKGLEWIGSINHSGSTNYNPSLKSRVTISVDTSKNQFSLKLSSVTAADTAVYYCTSVHQETKKYQSPRSAKELRCQCIKTYSKPFHPKFIKELRVIESGPHCANTEIIVKLSDGRELCLDPKENWVQRVVEKFLKRAENSGSGSYTYNYEWHVDVWGQGLLVTVSSAS light: QAVLNQPSSVSGSLGQKVTISCSGSSSNIGNNYVSWYQQLPGTAPRTLIYGDTKRPSGIPDRFSGSKSGTSATLGITGLQTGDEADYYCASAEDSSSNAVFGSGTTLTVLGQPKAAPSVTLFPPSSEELQANKATLVCLISDFYPGAVTVAWKADSSPVKAGVETTTPSKQSNNKYAASSYLSLTPEQWKSHRSYSCQVTHEGSTVEKTVAPTECS",luminescence at 0.4 nM IL-8 domains,[1],5420
same,luminescence at 1.6 nM IL-8 domains,[1],5710
same,luminescence at 6.25 nM IL-8 domains,[1],7160
same,luminescence at 25 nM IL-8 domains,[1],11200
same,luminescence at 100 nM IL-8 domains,[1],15500
"VH4-34+CDR3-IL8_CDR1-Cow_CDR2-Cow with VL1-51 S2A, T5N, P8S, A12G, A13S, P14L, K46R, L47T, D51G, N52D, N53T (antibody) VH: QVQLQQWGAGLLKPSETLSLTCTASGFSLSDKAVGWIRQPPGKGLEWLGSIDTGGNTGYNPSLKSRVTISVDTSKNQFSLKLSSVTAADTAVYYCTSVHQETKKYQSPRSAKELRCQCIKTYSKPFHPKFIKELRVIESGPHCANTEIIVKLSDGRELCLDPKENWVQRVVEKFLKRAENSGSGSYTYNYEWHVDVWGQGLLVTVSSAS light: QAVLNQPSSVSGSLGQKVTISCSGSSSNIGNNYVSWYQQLPGTAPRTLIYGDTKRPSGIPDRFSGSKSGTSATLGITGLQTGDEADYYCASAEDSSSNAVFGSGTTLTVLGQPKAAPSVTLFPPSSEELQANKATLVCLISDFYPGAVTVAWKADSSPVKAGVETTTPSKQSNNKYAASSYLSLTPEQWKSHRSYSCQVTHEGSTVEKTVAPTECS",luminescence at 0.4 nM IL-8 domains,[1],6310
same,luminescence at 1.6 nM IL-8 domains,[1],7400
same,luminescence at 6.25 nM IL-8 domains,[1],10200
same,luminescence at 25 nM IL-8 domains,[1],15400
same,luminescence at 100 nM IL-8 domains,[1],21600
"VH4-34 MutE 3xGGS NoKnob IgG (antibody, V domains shown) VH: QVQLREWGAGLLKPSETLSLTCAVYGGSFSDKYWSWIRQPPGKGLEWIGSINHSGSTNYNPSLKSRVTISVDTSKNQFSLKLSSVTAADTAVYYCTSVHQETKKYQSGGSGGSGGSSYTYNYEWHVDVWGQGLLVTVSS VL: QAVLNQPSSVSGSLGQKVTISCSGSSSNIGNNYVSWYQQLPGTAPRTLIYGDTKRPSGIPDRFSGSKSGTSATLGITGLQTGDEADYYCASAEDSSSNAVFGSGTTLTVLG","IL-2 ELISA (A450), Donor 1, [IgG] 0.01 nM",[2],2.18 A450 and 2.23 A450
same,"IL-2 ELISA (A450), Donor 1, [IgG] 0.75 nM",[2],2.19 A450 and 2.17 A450
same,"IL-2 ELISA (A450), Donor 1, [IgG] 68 nM",[2],1.42 A450 and 1.31 A450
same,"IL-2 ELISA (A450), Donor 2, [IgG] 0.01 nM",[2],1.75 A450
same,"IL-2 ELISA (A450), Donor 2, [IgG] 0.75 nM",[2],1.61 A450 and 1.42 A450
same,"IL-2 ELISA (A450), Donor 2, [IgG] 68 nM",[2],1.32 A450 and 0.934 A450
same,"IL-17 ELISA (A450), Donor 1, 0.00 nM IgG",[2],0 A450
same,"IL-17 ELISA (A450), Donor 1, 0.02 nM IgG",[2],1.35 A450
same,"IL-17 ELISA (A450), Donor 1, 0.08 nM IgG",[2],1.34 A450
same,"IL-17 ELISA (A450), Donor 1, 0.34 nM IgG",[2],1.27 A450
same,"IL-17 ELISA (A450), Donor 1, 1.54 nM IgG",[2],1.18 A450
same,"IL-17 ELISA (A450), Donor 1, 6.9 nM IgG",[2],0.828 A450
same,"IL-17 ELISA (A450), Donor 1, 31 nM IgG",[2],0.453 A450
same,"IL-17 ELISA (A450), Donor 1, 140 nM IgG",[2],0.247 A450
same,"IL-17 ELISA (A450), Donor 2, 0.00 nM IgG",[2],0 A450
same,"IL-17 ELISA (A450), Donor 2, 0.02 nM IgG",[2],0.959 A450
same,"IL-17 ELISA (A450), Donor 2, 0.08 nM IgG",[2],0.777 A450
same,"IL-17 ELISA (A450), Donor 2, 0.34 nM IgG",[2],0.82 A450
same,"IL-17 ELISA (A450), Donor 2, 1.54 nM IgG",[2],0.785 A450
same,"IL-17 ELISA (A450), Donor 2, 6.9 nM IgG",[2],0.641 A450
same,"IL-17 ELISA (A450), Donor 2, 31 nM IgG",[2],0.364 A450
same,"IL-17 ELISA (A450), Donor 2, 140 nM IgG",[2],0.096 A450
same,"TNF-α ELISA (A450), Donor 1, 0.00 nM IgG",[2],0 A450
same,"TNF-α ELISA (A450), Donor 1, 0.02 nM IgG",[2],1.52 A450
same,"TNF-α ELISA (A450), Donor 1, 0.08 nM IgG",[2],1.45 A450
same,"TNF-α ELISA (A450), Donor 1, 0.34 nM IgG",[2],1.42 A450
same,"TNF-α ELISA (A450), Donor 1, 1.54 nM IgG",[2],1.33 A450
same,"TNF-α ELISA (A450), Donor 1, 6.9 nM IgG",[2],1.1 A450
same,"TNF-α ELISA (A450), Donor 1, 31 nM IgG",[2],0.808 A450
same,"TNF-α ELISA (A450), Donor 1, 140 nM IgG",[2],0.402 A450
same,"TNF-α ELISA (A450), Donor 1, [IgG] 0.01 nM",[2],1.91 A450 and 1.88 A450
same,"TNF-α ELISA (A450), Donor 1, [IgG] 0.75 nM",[2],1.76 A450 and 1.67 A450
same,"TNF-α ELISA (A450), Donor 1, [IgG] 68 nM",[2],1.12 A450 and 1.08 A450
same,"TNF-α ELISA (A450), Donor 2, 0.00 nM IgG",[2],0 A450
same,"TNF-α ELISA (A450), Donor 2, 0.02 nM IgG",[2],1.56 A450
same,"TNF-α ELISA (A450), Donor 2, 0.08 nM IgG",[2],1.42 A450
same,"TNF-α ELISA (A450), Donor 2, 0.34 nM IgG",[2],1.55 A450
same,"TNF-α ELISA (A450), Donor 2, 1.54 nM IgG",[2],1.29 A450
same,"TNF-α ELISA (A450), Donor 2, 6.9 nM IgG",[2],0.916 A450
same,"TNF-α ELISA (A450), Donor 2, 31 nM IgG",[2],0.438 A450
same,"TNF-α ELISA (A450), Donor 2, 140 nM IgG",[2],0.167 A450
same,"TNF-α ELISA (A450), Donor 2, [IgG] 0.01 nM",[2],2.23 A450 and 2.1 A450
same,"TNF-α ELISA (A450), Donor 2, [IgG] 0.75 nM",[2],2.1 A450 and 1.88 A450
same,"TNF-α ELISA (A450), Donor 2, [IgG] 68 nM",[2],1.8 A450 and 1.32 A450
"VH4-34 MutE 3xGGS NoKnob (antibody, V domains shown) VH: QVQLREWGAGLLKPSETLSLTCAVYGGSFSDKYWSWIRQPPGKGLEWIGSINHSGSTNYNPSLKSRVTISVDTSKNQFSLKLSSVTAADTAVYYCTSVHQETKKYQSGGSGGSGGSSYTYNYEWHVDVWGQGLLVTVSS VL: QAVLNQPSSVSGSLGQKVTISCSGSSSNIGNNYVSWYQQLPGTAPRTLIYGDTKRPSGIPDRFSGSKSGTSATLGITGLQTGDEADYYCASAEDSSSNAVFGSGTTLTVLG",IL-2 ELISA (A450); Donor 1; 0.04 nM IgG,[2],0.333 A450
same,IL-2 ELISA (A450); Donor 1; 0.6 nM IgG,[2],0.356 A450
same,IL-2 ELISA (A450); Donor 1; 9.4 nM IgG,[2],0.371 A450
same,IL-2 ELISA (A450); Donor 1; 150 nM IgG,[2],0.232 A450
same,IL-2 ELISA (A450); Donor 2; 0.04 nM IgG,[2],0.976 A450
same,IL-2 ELISA (A450); Donor 2; 0.6 nM IgG,[2],0.795 A450
same,IL-2 ELISA (A450); Donor 2; 9.4 nM IgG,[2],0.808 A450
same,IL-2 ELISA (A450); Donor 2; 150 nM IgG,[2],0.475 A450
same,TNF-α ELISA (A450); Donor 1; 0.04 nM IgG,[2],0.76 A450
same,TNF-α ELISA (A450); Donor 1; 0.6 nM IgG,[2],0.813 A450
same,TNF-α ELISA (A450); Donor 1; 9.4 nM IgG,[2],0.821 A450
same,TNF-α ELISA (A450); Donor 1; 150 nM IgG,[2],0.599 A450
same,TNF-α ELISA (A450); Donor 2; 0.04 nM IgG,[2],0.736 A450
same,TNF-α ELISA (A450); Donor 2; 0.6 nM IgG,[2],0.631 A450
same,TNF-α ELISA (A450); Donor 2; 9.4 nM IgG,[2],0.622 A450
same,TNF-α ELISA (A450); Donor 2; 150 nM IgG,[2],0.366 A450
